We go through two molecules from PMC11078644, “Nesprin-2 is a novel scaffold protein for telethonin and FHL-2 in the cardiomyocyte sarcomere” (The Journal of Biological Chemistry, 2024).

Assay [1] deals with nesprin-2, endogenous ~200 kDa band of neonatal rat heart and neonatal rat cardiomyocytes. Put plainly: co-immunoprecipitation with telethonin antibody, Western blot densitometry. To be noted: lysates harvested 48 h after adenoviral infection, n = 5, parent: est. 1.0, read off a plot. (In general: A western blot detects proteins with antibodies after separation by electrophoresis.)

Assay [2] has as its target T1, His-telethonin (full length, pET DUET-1, N-terminal 6x Histidine tag), co-expressed with nesprin-2 SR51-53 (UniProt O15273 1-167).
T1 construct: telethonin, full length; printed mass 19 kDa; source: E. coli BL21(DE3)pLysS, co-expressed with nesprin-2 SR51-53, co-purified (His-trap, SEC); not shown: 6x His, N-terminal, kept
T1 sequence (looked up): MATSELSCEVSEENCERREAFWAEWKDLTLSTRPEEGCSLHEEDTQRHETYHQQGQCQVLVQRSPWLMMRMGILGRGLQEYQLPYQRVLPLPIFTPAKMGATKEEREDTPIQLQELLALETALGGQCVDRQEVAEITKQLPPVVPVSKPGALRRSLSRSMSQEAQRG
Put plainly: SEC; His-telethonin and untagged nesprin-2 SR51-53 co-expressed in E. coli, His-trap, Superdex 200 16/60, then Superdex 75 10/300; 50 mM Tris/HCl pH 7.5, 150 mM NaCl, 100 mM βME; single peak at 10.29 ml, both proteins found by Western blot. The conditions noted are these: both partners purified. (Size exclusion chromatography separates by hydrodynamic size, large species first.)

In the case of “HA-tagged WT telethonin expressed from adenovirus in neonatal rat cardiomyocytes (from UniProt O15273) S157A; S161A”, the ratio to parent in assay [1] is 4.8.

B1: nesprin-2 SR51-53 (no tag), co-expressed with His-telethonin (domain or fragment, human, UniProt Q8WXH0 6018-6354, looked up)
chain: KETFAFIQQLDKNMSNLRTWLARIESELSKPVVYDVCDDQEIQKRLAEQQDLQRDIEQHSAGVESVFNICDVLLHDSDACANETECDSIQQTTRSLDRRWRNICAMSMERRMKIEETWRLWQKFLDDYSRFEDWLKSAERTAACPNSSEVLYTSAKEELKRFEAFQRQIHERLTQLELINKQYRRLARENRTDTASRLKQMVHEGNQRWDNLQRRVTAVLRRLRHFTNQREEFEGTRESILVWLTEMDLQLTNVEHFSESDADDKMRQLNGFQQEITLNTNKIDQLIVFGEQLIQKSEPLDAVLIEDELEELHRYCQEVFGRVSRFHRRLTSCTPGL
notes: nesprin-2 giant, human, spectrin repeats 51-53, amino acids 6018-6354 of the full length of nesprin-2 giant; in CDF DUET-1 without a tag; printed mass 40.51 kDa; source: E. coli BL21(DE3)pLysS, co-expressed with His-telethonin, co-purified (His-trap, SEC)
As to B1, the “stoichiometry N” value in assay [2] was 1 nesprin-2 SR51-53 per telethonin.
